This passage reports Km results from ChEMBL document CHEMBL1135258, “Substrate spectrum of tyrocidine thioesterase probed with randomized peptide N-acetylcysteamine thioesters” (Bioorg Med Chem Lett, 2002).

Holding throughout (conditions): Brevibacillus brevis
Substrate in series [1]: CC(=O)NCCSC(=O)[C@H](CC(C)C)NC(=O)[C@H](CCCN)NC(=O)[C@@H](NC(=O)[C@H](Cc1ccc(O)cc1)NC(=O)[C@H](CCC(N)=O)NC(=O)[C@H](CC(N)=O)NC(=O)[C@@H](NC(=O)[C@H](Cc1ccccc1)NC(=O)[C@@H]1CCCN1C(=O)[C@H](N)Cc1ccccc1)[C@@H](C)O)C(C)C
As to the kind of experiment: (§1) Apparent kinetic constant (Km) determined for tyrocidine thioesterase amplified from Bacillus brevis (ATCC8185).

Substrate in series [2]: CC(=O)NCCSC(=O)[C@H](CC(C)C)NC(=O)[C@H](CCCN)NC(=O)[C@@H](NC(=O)[C@H](Cc1ccc(O)cc1)NC(=O)[C@H](CCC(N)=O)NC(=O)[C@H](CC(N)=O)NC(=O)[C@@H](NC(=O)[C@H](Cc1ccccc1)NC(=O)[C@@H]1CCCN1C(=O)[C@H](N)Cc1ccccc1)C(C)C)C(C)C
The description is as §1.

Substrate in series [3]: CC(=O)NCCSC(=O)[C@H](CC(C)C)NC(=O)[C@H](CCCN)NC(=O)[C@@H](NC(=O)[C@H](CC(N)=O)NC(=O)[C@H](CCC(N)=O)NC(=O)[C@H](CC(N)=O)NC(=O)[C@@H](Cc1ccccc1)NC(=O)[C@H](Cc1ccccc1)NC(=O)[C@@H]1CCCN1C(=O)[C@H](N)Cc1ccccc1)C(C)C
The series is described as §1.

Substrate in series [4]: CC(=O)NCCSC(=O)[C@H](CC(C)C)NC(=O)[C@H](CCCN)NC(=O)[C@@H](NC(=O)[C@H](Cc1ccc(O)cc1)NC(=O)[C@H](CCC(N)=O)NC(=O)[C@H](CC(N)=O)NC(=O)[C@H](CCC(=O)O)NC(=O)[C@H](Cc1ccccc1)NC(=O)[C@@H]1CCCN1C(=O)[C@H](N)Cc1ccccc1)C(C)C
Described as §1.

Substrate in series [5]: CC(=O)NCCSC(=O)[C@H](CC(C)C)NC(=O)[C@H](CCCN)NC(=O)[C@@H](NC(=O)[C@H](Cc1ccc(O)cc1)NC(=O)[C@H](CCC(N)=O)NC(=O)[C@H](CC(N)=O)NC(=O)[C@H](Cc1ccccc1)NC(=O)[C@H](Cc1ccccc1)NC(=O)[C@@H]1CCCN1C(=O)[C@H](N)Cc1ccccc1)C(C)C
The description is as §1.

Substrate in series [6]: CC(=O)NCCSC(=O)[C@H](CC(C)C)NC(=O)[C@H](CCCN)NC(=O)[C@@H](NC(=O)[C@H](Cc1ccc(O)cc1)NC(=O)[C@H](CCC(N)=O)NC(=O)[C@H](CC(N)=O)NC(=O)[C@H](CCCCN)NC(=O)[C@H](Cc1ccccc1)NC(=O)[C@@H]1CCCN1C(=O)[C@H](N)Cc1ccccc1)C(C)C
Described as §1.

Substrate in series [7]: CC(=O)NCCSC(=O)[C@H](CC(C)C)NC(=O)[C@H](CCCN)NC(=O)[C@@H](NC(=O)[C@H](Cc1ccc(O)cc1)NC(=O)[C@H](CCC(N)=O)NC(=O)[C@H](CC(N)=O)NC(=O)[C@H](CO)NC(=O)[C@H](Cc1ccccc1)NC(=O)[C@@H]1CCCN1C(=O)[C@H](N)Cc1ccccc1)C(C)C
The description is as §1.

Substrate in series [8]: CC(=O)NCCSC(=O)[C@H](CC(C)C)NC(=O)[C@H](CCCN)NC(=O)[C@H](CCCN=C(N)N)NC(=O)[C@H](Cc1ccc(O)cc1)NC(=O)[C@H](CCC(N)=O)NC(=O)[C@H](CC(N)=O)NC(=O)[C@@H](Cc1ccccc1)NC(=O)[C@H](Cc1ccccc1)NC(=O)[C@@H]1CCCN1C(=O)[C@H](N)Cc1ccccc1
The series is described as §1.

Substrate in series [9]: CC[C@@H](C)[C@H](NC(=O)[C@H](CC(N)=O)NC(=O)[C@@H](Cc1ccccc1)NC(=O)[C@H](Cc1ccccc1)NC(=O)[C@@H]1CCCN1C(=O)[C@H](N)Cc1ccccc1)C(=O)N[C@@H](Cc1ccc(O)cc1)C(=O)N[C@H](C(=O)N[C@@H](CCCN)C(=O)N[C@@H](CC(C)C)C(=O)SCCNC(C)=O)C(C)C
The description is as §1.

Substrate in series [10]: CC(=O)NCCSC(=O)[C@H](CC(C)C)NC(=O)[C@H](CCCN)NC(=O)[C@@H](NC(=O)[C@H](Cc1ccc(O)cc1)NC(=O)[C@H](CCC(N)=O)NC(=O)[C@@H](NC(=O)[C@@H](Cc1ccccc1)NC(=O)[C@H](Cc1ccccc1)NC(=O)[C@@H]1CCCN1C(=O)[C@H](N)Cc1ccccc1)C(C)C)C(C)C
Described as §1.

Substrate in series [11]: CC(=O)NCCSC(=O)[C@H](CC(C)C)NC(=O)[C@H](CCCN)NC(=O)[C@@H](NC(=O)[C@H](Cc1ccc(O)cc1)NC(=O)[C@H](CCC(N)=O)NC(=O)[C@H](CC(N)=O)NC(=O)[C@@H](Cc1ccccc1)NC(=O)[C@H](Cc1ccccc1)NC(=O)[C@H](CC(N)=O)NC(=O)[C@H](N)Cc1ccccc1)C(C)C
The description is as §1.

Substrate in series [12]: CSCC[C@H](NC(=O)[C@H](Cc1ccccc1)NC(=O)[C@@H]1CCCN1C(=O)[C@H](N)Cc1ccccc1)C(=O)N[C@@H](CC(N)=O)C(=O)N[C@@H](CCC(N)=O)C(=O)N[C@@H](Cc1ccc(O)cc1)C(=O)N[C@H](C(=O)N[C@@H](CCCN)C(=O)N[C@@H](CC(C)C)C(=O)SCCNC(C)=O)C(C)C
The series is described as §1.

Substrate in series [13]: CC(=O)NCCSC(=O)[C@H](CC(C)C)NC(=O)[C@H](CCCN)NC(=O)[C@@H](NC(=O)[C@H](Cc1ccc(O)cc1)NC(=O)[C@H](CCC(N)=O)NC(=O)[C@H](CC(C)C)NC(=O)[C@@H](Cc1ccccc1)NC(=O)[C@H](Cc1ccccc1)NC(=O)[C@@H]1CCCN1C(=O)[C@H](N)Cc1ccccc1)C(C)C
The description is as §1.

Substrate in series [14]: CC(=O)NCCSC(=O)[C@H](CC(C)C)NC(=O)[C@H](CCCN)NC(=O)[C@@H](NC(=O)[C@H](Cc1ccc(O)cc1)NC(=O)[C@H](CCC(N)=O)NC(=O)[C@H](CC(N)=O)NC(=O)[C@@H](Cc1ccccc1)NC(=O)[C@H](Cc1ccccc1)NC(=O)[C@H](C)NC(=O)[C@H](N)Cc1ccccc1)C(C)C
The series is described as §1.

Substrate in series [15]: CC(=O)NCCSC(=O)[C@H](CC(C)C)NC(=O)[C@H](CCCN)NC(=O)[C@@H](NC(=O)[C@H](Cc1ccc(O)cc1)NC(=O)[C@H](CC(N)=O)NC(=O)[C@H](CC(N)=O)NC(=O)[C@@H](Cc1ccccc1)NC(=O)[C@H](Cc1ccccc1)NC(=O)[C@@H]1CCCN1C(=O)[C@H](N)Cc1ccccc1)C(C)C
Described as §1.

B1: Thioesterase GrsT homolog tycF (Brevibacillus brevis), O30412 (protein)
chain: MKLFCFPYAGGLPGIYYSWKSRLPPTFLEIDAFEVRPHIPQPNRDVFLPTSFYELLEDVCDRITPALTETPFAFFGHSMGGLVAFELTRKLMQKGAPLPQHLFLSASRAPHAYGKLAKTYNLPHDEFVEALRKLGGTPDDVLENQELLELFLPILRADFQAVQTYEMNPDLPRQVPVNMTVLYGTEDTIALEDIWAWRDYCQGACQFFPVSGGHFFIHHQTSPILEIIQNVLKEEKTVAIHSSF
With B1, the Km in series [1] was found to be 31 µM; in series [2] it was 145 µM; in series [3], 7.6 µM; in series [4], 12 µM; in series [5], 4.8 µM; in series [6], 15 µM. The Km came to 14 µM in [7]; 33 µM in series [8]; 82 µM in [9]; 25 µM in series [10]; 82 µM in series [11]; 20 µM in [12]. Also, the Km in series [13] came to 42 µM; in [14], 31 µM; in series [15], 112 µM.

In general, Km refers to the concentration of substrate that gives half-maximal velocity.
